The data set can be described thus: yeast display, Sf9 membrane polyspecificity reagent, FACS + sequencing; frameworks hold sequencing errors. In a few lines:
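A synthetic nanobody library was expressed on Saccharomyces cerevisiae BJ5465 by galactose induction for 36–48 hours. The library was stained for 1 hour at 4 °C with 10% biotinylated, detergent-solubilized Sf9 membrane reagent and enriched with streptavidin microbeads before FACS. Low and high (top ~1%) gates were set on anti-HA fluorescence for expression and streptavidin fluorescence for reagent binding, and each polyreactivity label reflects the gate of origin.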
Consider “QVQLVESGGGLVQAGGSLRLSCAASGRINYFYAIVWSRQAPGKEQELVAAISTSGGSTYYADCVKGRFTISRDNAKNTLYLQMNSLTPEETAVYDCAARFRYYGSEYDYWGQGTQVTVSS”, for which the “polyreactivity (PSR sort gate)” value is “low polyreactivity”.
As for “QVQLVESGGGLVQAGGSLRLSCAASGRIPVNAMGWYRQAPVKERELVAAISVSGGSTNYADSVKGRFTISRDNAKNTVYLQMNSLKPEDTAVYYCNADPDWWYPYNYWGQGTQVTLSS”, the “polyreactivity (PSR sort gate)” value was “low polyreactivity”.
The entry for “QVQLVESGGGLVQAGGSLRLSCAASGRIQYNAMGWYRQAPGKEREFVAAISWSGGTTYYADSVKGRFTISRDNAKNTVYLQMNRLKPEDTAVYYCATPYTHWGQGTQVTVSS” is “high polyreactivity”; for “QVQLVESGGGLVQAGGSLRLSCAASGRISDVYVMVWYRQAPGKERELFAAITWSGGDTYYADSVKGRFTISRDNAKNTVYLQMNSLKPEDTEVYYCTADTGKWGGNGWYDFDYWGQGTQVTVSS” it is “low polyreactivity”; for “QVQLVESGGGLVQAGGSLRLSCAASGRISESNDMGWYRQAPGKEREVVAAISSSGGSTYYADSVKGRFTISRDNAKNTVYLQMNSLKPEETAVDYCNAVYYRTVLKIGVYEYDYWGQGTQVTVST” it is “low polyreactivity”.
As to “QVQLVESGGGLVQAGGSLRLSCAASGRISFYYAMGWYRQAPGKERELVAAISRGGSTYYADSVKGRFTISRDNAKNTVYLQMNSLKPEDTAVYYCAATYSGVDTPSGYDYWGQGTQVTVSS”, the “polyreactivity (PSR sort gate)” value was “low polyreactivity”.
As to “QVQLVESGGGLVQAGGSLRLSCAASGRISFYYARGWSIQAPGKERELVAAISRGGSTYYADSVKGRFTISRDNAKNTVYLQMNSLKPEDTAVYYCAATYSVVDTPSGYDYWGQGTLVTVSS”, the “polyreactivity (PSR sort gate)” value is reported as “low polyreactivity”.
The entry for “QVQLVESGGGLVQAGGSLRLSCAASGRISGYAMGWYRQAPGKERELVAAISTRGGTTYYADSVKGRFTISRDNAKNTVYLQMNSLSPEDTAVYYCNAASSRWPEYDYWGQGTQVTVSS” is “high polyreactivity”; for “QVQLVESGGGLVQAGGSLRLSCAASGRISGYYAMGWYRQAPGKEREFVAAITRSGGSTYYADSVKGRFTISRDNAKNTVYLQMNSLKPEDTAVYYCAADTRGFSYGNGYGYWGQGTQVTVSS” it is “low polyreactivity”; for “QVQLVESGGGLVQAGGSLRLSCAASGRISIKNAMGWYRQAPGQERELVAAIRWSADSTYYADSVKGRFTISRDNAKTTVYLQMNSLKPEDTAVYYCAATGRLRYYWGQGTQVNVSS” it is “high polyreactivity”.
With “QVQLVESGGGLVQAGGSLRLSCAASGRISIWYAMGWYRQAPGKERELVARISTSSGRTYYADSVKGRFTISRDNAKNTVYLQMNSLKPEDTAVYYCNAAGYRIYFSTRYDYWGQGTQVTVSS”, the “polyreactivity (PSR sort gate)” value is recorded as “high polyreactivity”.
For “QVQLVESGGGLVQAGGSLRLSCAASGRISIWYDMGWYIQAPGKEREFVASITSGGSTYADSVKGRFTISRDNAKNTVYLQMNSLKPEDTAVYYCAADEAPYVPSEQRHSRFSHWGQGTQVTVSS”, the “polyreactivity (PSR sort gate)” value is on record as “low polyreactivity”.
The entry for “QVQLVESGGGLVQAGGSLRLSCAASGRISKGYAMGWYRPAPGKERELVAAISWRTSSTYYADSVKGRFTISRDNAKNTVYLQMNSLKPEANAVYYCAAETWLGSWRQVGMDYWGQGTQVTVSS” is “high polyreactivity”; for “QVQLVESGGGLVQAGGSLRLSCAASGRISLSNAMGWYRQAPGKEREFVAAITKRSDRTYYADSVKGRFTISRDNAKNTVSLQMNSLKPEDTAVYYCAAKPLFGTRDDYWGQGTQVTVSS” it is “low polyreactivity”; for “QVQLVESGGGLVQAGGSLRLSCAASGRISNDYAMGWYRQAPGKDRELVATITFSGGDTYYADSVKGRFTISRDHAKNTVYLQMNSLKPEDTAVYYCAASKWPSYSGGWWRLLFDYWGQGTQVTVSS” it is “low polyreactivity”.
Turning to “QVQLVESGGGLVQAGGSLRLSCAASGRISNKYAMGSYRQAPGKERELVAAISYSGGTTYYADSVKGRFTISRDNAKNTVYLQMNSLKPEDTAVYYCARVWSKGYGYYWGYYWGQGSQVTVSS”, the “polyreactivity (PSR sort gate)” value is recorded as “low polyreactivity”.
With “QVQLVESGGGLVQAGGSLRLSCAASGRISNRYAMGWYRQAPGKERELVAAIRRSTTSTYADSVKGRFTISRDNEKNTFYLQMNSLKPEYTAVYYCAARGGRRGGYYSWGQGTQVTVSA”, the “polyreactivity (PSR sort gate)” value is recorded as “high polyreactivity”.
For the sequence “QVQLVESGGGLVQAGGSLRLSCAASGRISPNNAMGWYRQAPGKERELVAAITASGGTTYYADSVKGRFTISRDNAKNTVYLQMNSLKPEDTAVYYCAAAVWYRGWYRYDYWGQGTQVTVSS”, the “polyreactivity (PSR sort gate)” value was “low polyreactivity”.
Take “QVQLVESGGGLVQAGGSLRLSCAASGRISPVYAMGWYRQAPGKERELVAAITSGGSTNYADSVKGRFTISRDNAQNTVYLQMNSLKPEDTAVYYCAVEGFSSAAYDFEYWGQGTQVTVSS”: the “polyreactivity (PSR sort gate)” value is recorded as “high polyreactivity”.
As to “QVQLVESGGGLVQAGGSLRLSCAASGRISRLYAMGWYRPAPGKERELVAAITDSGGSTYYADSVKGRFTISRDTAKNTVYLQMNSLKPEDTAVYYCAATWSNWYREYYYWGQGTQVTVSS”, the “polyreactivity (PSR sort gate)” value is “high polyreactivity”.
Consider “QVQLVESGGGLVQAGGSLRLSCAASGRISRRNAMGWYRQAPGKEREFVATITSSGGCTYYADSVKGRFTISRDNAKNTVYLQMNSLKPEDTAVYYCAARVRGRYTEDYWGQGTQVTVSS”, for which the “polyreactivity (PSR sort gate)” value is on record as “high polyreactivity”.
“QVQLVESGGGLVQAGGSLRLSCAASGRISSANAMGWYRPAPGKERELVAAITWSGGSTYYADSVKGRFTISRDNAKNTVYIQMNSMKQEDTAVYYCAAESSAYGGGTSDAGYESDYWGQGTQVTVSS”: the “polyreactivity (PSR sort gate)” value is given as “low polyreactivity”.
Regarding “QVQLVESGGGLVQAGGSLRLSCAASGRISSIYAMGCYRQAPGKERELVATISVRTTGTYYADSVKGRFTISRDNAKNTVYLQMNSLKPEDTAVYYCAAAKRRGYYVKYDYWGQGTQVTVSS”, the “polyreactivity (PSR sort gate)” value is given as “high polyreactivity”.
The entry for “QVQLVESGGGLVQAGGSLRLSCAASGRISVRNAMGWYRQAPGKERELVATIRSGGSTNYADSVKGRFTISRDNAKNTVYLQMYSLKPEDTAVYYCATAKLTWRSQGLDYWGQGTQVTVSS” is “low polyreactivity”.
With “QVQLVESGGGLVQAGGSLRLSCAASGRISYGNGMGWYIQAPGKERELVAAISWSTTRTYYADSVKGRFTISRDYAKNTVYLQMNSLKPEDTAVYYCNAAGRPYDFSGGRTMEYWGQGTQVTVSS” the entry was “high polyreactivity”; with “QVQLVESGGGLVQAGGSLRLSCAASGRISYYAMGWYRQAPGKERELVAVISSRGGSTYYADSVKGRFTISRDNAKNTVYLQMNSLKPEDTAVYYCAADLYYDAWRLYVLGYATMDYWGQGTQVTVSS”, “high polyreactivity”; with “QVQLVESGGGLVQAGGSLRLSCAASGRITFRNAMVWYRQAPGKERELVASITSGGSTYYADSVKGRFTISRDNAKNTVYLQMNSLKPEDTAVYYCAGEGTARTSPPMDYWGQGTQVTVSS”, “high polyreactivity”.
Take “QVQLVESGGGLVQAGGSLRLSCAASGRITFSHNTMGWYRQAPGKERELVAAISSGGRTNYADSVKGRFTISRDNAKNTVYLQMNSLKPEDTGVYYCARESHYDFIYDGMDYWGQGTQVTVSS”: the “polyreactivity (PSR sort gate)” value is “low polyreactivity”.
With “QVQLVESGGGLVQAGGSLRLSCAASGRIVGWYAMGWYRQAPGKERELVAGINYGGGRTYYADSVKGRFTISRDNAKNTVYLQMNSLKPEDTAVYYCAAGISGHYYWGQGTQVTVSS” the entry was “high polyreactivity”.
In the case of “QVQLVESGGGLVQAGGSLRLSCAASGRIVKRNAMGWYRHAPGKERELVAAISYSGGSTYYADSVKGRFTISRDNAKNTVYLEMMSLKPEDTAVYYCAVDRYPTGITKYDYWGQGTQVTVSS”, the “polyreactivity (PSR sort gate)” value was “high polyreactivity”.
The entry for “QVQLVESGGGLVQAGGSLRLSCAASGRIVKYAMGWYRQAPGKERELVAAITSGGSTTYADSVKGRFTISRDNAKNTVYLQMNSLKPEDTAVYYCKALRRARYTRKGYEYWGQGTQVTVSS” is “high polyreactivity”.
On to “QVQLVESGGGLVQAGGSLRLSCAASGRIVSGYVMGWYRQAPGKERELVAVISRSGGSTYYADSVKGRFTISRDNAKNTVYLQMNSLKPEDTAVYYCDAKHIDGSRGYDYWGQGTQVTVSS”, for which the “polyreactivity (PSR sort gate)” value is “low polyreactivity”.
With “QVQLVESGGGLVQAGGSLRLSCAASGRIVTAYAMGWYRPAPGKEREFVAAISSSGGSTYADSVKGRFTISRDNAKNTVYLQINSLKPEDTAVYYCAARYGFYWFPGYYYWGQGTQVTVSS”, the “polyreactivity (PSR sort gate)” value is listed as “low polyreactivity”.
In the case of “QVQLVESGGGLVQAGGSLRLSCAASGRIVWSYGMGWYRQAPGKERELVAAITNTGDGTYYADSVKGRFTISRDNAKNTVYLQMNSLKPEDTAVYYCAVDYRGYWYWEYDYWGQGTQVTVSS”, the “polyreactivity (PSR sort gate)” value is listed as “high polyreactivity”.
The entry for “QVQLVESGGGLVQAGGSLRLSCAASGRIWVNAMAWYRQAPRKEMEFVAAISTSSASTYYADSVKGRFTISRDNAKNTVYLQMNSLKPVDTAVYYCAARYLGKKFYYWGQGTQVTVSS” is “high polyreactivity”; for “QVQLVESGGGLVQAGGSLRLSCAASGRIYAYYPMGWYRQAPGKERELVAAISRGGGSTSYADSVKGRFTISRDNAKNTVYLQMNSLKPEDTAVYYCAADTRSYLVFTRYFRAYRRYDYWGQGTQVTVSS” it is “low polyreactivity”; for “QVQLVESGGGLVQAGGSLRLSCAASGRIYGGNAKGWYRQAPGKEREFVAAITWRGGTTYYADSVKGRFTISRDNAKNTVYLQMNSLKPEDTAVYYCNALRYTRNTGYDYWGQGTQVTVSS” it is “high polyreactivity”.
“QVQLVESGGGLVQAGGSLRLSCAASGRIYGYTMGWYRQAPGKERELVAAITRNGGSTYYADSVKGRFTISRDNSKNSVYLQMNSLKPEDTAVYYCAARNAFGTYYYWGQGTQVTVSS”: the “polyreactivity (PSR sort gate)” value is “high polyreactivity”.
Turning to “QVQLVESGGGLVQAGGSLRLSCAASGRIYKYYAMGWYRQAPGKETELVAAISISGTNTYYADSVKGRFTISRDNAKNTVYLQMNSLKPEDTAVFYCAARQYTRGYEREYWGQGTQVTVSS”, the “polyreactivity (PSR sort gate)” value is recorded as “high polyreactivity”.
Turning to “QVQLVESGGGLVQAGGSLRLSCAASGRIYVPNAMGWYRQAPGKERELVAAITSDGRTNDADSVKGRFTISRDNAKNTVYVQMNSLKPEDTAVYYSNAPVVTFGGYQDDVEYGYWGQGTQVTVSS”, the “polyreactivity (PSR sort gate)” value is on record as “low polyreactivity”.
The entry for “QVQLVESGGGLVQAGGSLRLSCAASGRIYYAYTMGWYIQAPGKERELVAAISGSGSTYYADSVKGRFSISRDNAKNTVYLQMNSLKPEDTAVYYCAADVTGGRKYDYWGQGTQVTVSS” is “low polyreactivity”.

Values taken from the nanobody polyreactivity screen of Harvey et al. (2022).
